assay: soluble on expression in E. coli; label from the status in PepcDB or PDB records

| Sequence | soluble on expression in E. coli |
| --- | --- |
| MGSDKIHHHHHHMLERTTRHVRPSLDGQAFYERCTQILSELDDAESSLRNVIAQPRGLLRVDLSGAHATKIVLPNIDQFHELYPDIELVISTGDRLVDLIREGIDCVVRAGRLDDSTLIARHLVDMPQVICASPDYLNKHGTPEQPEDLLSHYCVNFFSTSGGRNYPFELMVNGKKQDYFLKSWIAVNDAENYVLSALQGAGLIQVPHYHVANELKNGRLVEVLSEWESPKMSVSALYPQHRQLSPRVRVFVAWLSELYTGYFANFEYPQK | not soluble |
| DERKRQESLIQSMFMPREILRASLSDVDLNDDGRIKAIRFAERFVAEYEPGKKMKGLYLHGSFGVGKTYLLAAIANELAKRNVSSLIVYVPELFRELKHSLQDQTMNEKLDYIKKVPVLMLDDLGAEAMSSWVRDDVFGPILQYRMFENLPTFFTSNFDMQQLAHHLTYSQRGEEEKVKAARIMERIRYLAYPIEITGPNRR | soluble |
| MGSDKIHHHHHHMNLYVGLDVGTTGVKGILVNEKGEILATANERLTMFTPQPAWAEQDPLSWWEAVKKILKNLSERSKEMGGKIRAISTSGQMHSLVAIDDNGKVLRNAILWCDQRTYKECEEATQILGGEENVLKLVGNPILPGFTLPKILWIRKHEPEIYGKISKIMLPKDFINYMLTGEVKTEHSDASGTVMYSVSKMEWNKDVLKELNIPESVLPEIIPSNGVVGNVKPEVASDLGLSEDTLVIGGGADNACAALGIAVVEPGDVMVSLGTSGTVLAPTKGNQPDPKGRVHFFAHTVPETRYHMGVMLSATYSLEWFKEKFLSEDYETINEEVDKIPAGSNGIIFLPYLNGERTPHRDPFARGVFFGISSYNTKWDMVRAIFEGVAFGIKDSFDILRELKVVLNSVRITGGGSKSRVWNKMLADMTGLRIQKPAVDEGASYGAAILAVSGSMGENPAKISKEWFRVKSYTDPAVENTETYEKLHEKFKKLYTSLKEMFRS | not soluble |
| MVNYKEKLDEAIHLTQQKGFEQTRAEWLMLDVFQWTRTDFVVHMHDDMPKAMIMKFDLALQRMLLGEPIQYIVGFASFYGRTFDVNSNCLIPRPETEEVMLHFLQQLEDDATIVDIGTGSGVLAITLKCEKPDLNVIATDISLEAMNMARNNAEKHQSQIQFLTGDALKPLINEGIKLNGLISNPPYIDEKDMVTMSPTVTRFEPHQALFADNHGYAIYESIIEDLPHVMEKGSPVVFEIGYNQGEALKSIILNKFPDKKIDIIKDINGHDRIVSFKW | not soluble |
| MKTYNIPVEATLEVIGGKWKVVILCHLKKDKKRTCELKQLMSGITQKMLTQQLRELEEDGVIERKVYNQVPPKVEYSLTDYGHSLDSILDTLCNWGENHLEKNGNTSMLITAAE | not soluble |
| MGSDKIHHHHHHMKIVTYSKNVFIPLTRNCRNRCDYCGFRSEEIGVMSAEEVRKILSAARGAKEALFTFGERPDEVYPEFKAMLLEMGYKSMVDYILEMNKIAVEMGFLPHTNAGILSKEEMRKLKPYNASMGLMLEQAVELECHANSPGKKPEVRIKMIRDAGKLQIPFTTGILVGIGEGREDRLYSLEIIAEIQDNYGHIQEVIVQNFKPKKGTPMENTPPPTLEEMLEAVKAAREILPQEVAIQIPPNLVDDIYPFLKAGANDVGGISNVTHDYINPESPWPEVERLERALRGEFILKERLPIYPRFVKLKWYGEALEPLIEKYSDADGYARP | not soluble |
| VKLVIDLLGAQTRSHLRGIGRYTRELTKALLRQAGEAHAIHLVLHAPLEQASDALIAEFGALLPRARIHLLRLPRHTSEHLTGNTWRHHAASRLSRYGLTCLDADVVWHSSVFEGYDEDGVLPDAPLFHTNRVATLYDLIPLHDPEVFLPGSLPKAWYERRSAFLSSCDLLFCLSEWTAQEAVQRLHLDPERLVVIGGGVDSNFRPLVFDAQQRGNLLARFSITRPYVLYNGGLDQRKNVPALLRAFALLPMAIRQRHQLVVLGDDREVHRPMMALCRQLGLDQQEVVFTGRVNDSDLVALYGLCALFVFPSRLEGFGLPVLEAMACGAPTLCSDAASLPEVAGRQDILFPPEDHVALSARMSQVLDDPQWLQSLRDYGLRRATAFTWDRVAQRALDALTRLQVRSSEMKSQRVSEVSPATHTETAAPEMLPITEIQLVTDLAALPGDASRDDLAQAAFSICSMRVAPQAPQWLVDVSQIAKTDIGTGTSRVTRSILREWLSTPPPGVCIVPVYLREGQYHYARSFTAQVLGLVSETPQEGIVMVYPGDVFVGLDWAPEAINAARARLQDWRRVGVATCFVVHDLLPMTLPDCFHPYSRNLFEQWLRTVAHLADAIACISATTAEVLSRWLQDTTVDYQFGIPPQVKHFPLGVSFPEVSTAQEAIREELRTALVMRPTLLIVGTLEPRKGHVHALRICEQLWEQGEDVNLVVVGQRGWSEQALVMRLTRHPEVGRRLFWLSDAADAELSALYVHATALLALSEGEGYGLPLLEAAHFRLPILARPLPVFLEIMADYPHYLDGTAPDTWSATVAQWLHASDRPISRPVPIASWKESAQQLADIVNDCRFLLDSKKLSAPLK | soluble |
| MKRVFVFQDFKSQKFWSIDVRGTDVIVNYGKLGTDGQTQVKNFSSAGEAEKAAGKLIAEKTKKGYVETLEEVAKEMKVEAKKYALSYDEAEEGVNLMDKILKDKKLPSLKQITIGCWGYEGEDCSDIADGIVENKEKFAHFEGLFWGDIDFEEQEISWIEQVDLSPVLDAMPLLNNLKIKGTNNLSIGKKPRPNLKSLEIISGGLPDSVVEDILGSDLPNLEKLVLYVGVEDYGFDGDMNVFRPLFSKDRFPNLKWLGIVDAEEQNVVVEMFLESDILPQLETMDISAGVLTDEGARLLLDHVDKIKHLKFINMKYNYLSDEMKKELQKSLPMKIDVSDSQEYDDDYSYPMITELEHHHHHH | soluble |
| RTDTIMVLHIPSSGKATLMSIPRDSYVEIPGYGMDKINASFTYGGAPLLTQTVENATGLRINHYAEIGMGGLANVVDAVGGIEVCPAEPIDDPLAGLNIAAGCQKVDGPTALGYVRTRHTALGDLDRVQRQREFFAALVNKVTS | not soluble |
| MSDNEIVAGIMRDHIINLLKEGKRIDDRGFEDYRPIEIEVGIIEKAEGSALVKLGSTQVLVGIKTTLGEPFPDTPNMGVMTTNVELVPLASPTFEPGPPDERAIELARVTDRGIRESRALNLEKMVIVPGKIVRVVFIDVHVLDHDGNLMDAIGIASIAALLNAKVPKVEYNEETGEVEILEEKEPLPVERIPIPVTFAKIGNILVVDPSLEEELVMDGRLTVTTDETGHISAVQKGEGGAFKLEEVMYAVETAFKKAEEIRKIVLEAIKKSGE | soluble |
| DIEVSEDVRKEQLGWLSCVSRAILKQNIITYSQPIVHAYSHLPASQECLVRILEEDGTVIAPGRFLPIISDTHLYTRLSRHMIRSTLHYMRDKKGDFSINLSPQDLLSDKTLMLLEHEISQLNDPTRIGLEVLESEQIKDYGRMIEVCSHFRKLGARIIVDDFGSGYSNIDEILKLEPEVIKLDGSLIRDIDKDLKQRKIASQLVRLCQVFNAETVAEFVHNREVCKIAQDMGVDYLQGYYLGEP | not soluble |
| MAHLQYRDGDWYLHASMRKVEAGEGTSESESKHRTVLGVDLGVNNLAVASTGRFWSAGEFNHWRREYEKRRALLQQCGSRHAHENIESVGQKEYGRFEIYLHTVANELIEEAIENDCSHIVFEDLTHIRENIPEATWQHVWAFRRLYEYVEYKAKENGVEAVQVDPRNTSKRCLTCGFTHDDNRNGESFKCQQCGYENHADYNASKNIGLQYLRRRQNADDGGAPVDVRLNRGTLNVSGEYAHPASTEALEHHHHHH | not soluble |
| MRITLVTDSTSDLPQDLRGRLGVRVVPLYVNLSGAIYRDWEEITPTEIFQKVREGAAFPTTSQPSPEDFARVYREALEEADHVLSLHISGKLSGTVQSAELAAQEFPGRVTVVDTQAASLGVGMMVLRAKELLEEGQSLEAVLAELERLRRDHFVRFSVATLEFLKRGGRIGGAQAFLGTLLNLKPVLTLKEGRVEAAGRARGEKKAREEILKAFRAWAEGRKRIRAYFLYSGDEDAVAALRQEVLASGLPVEEALVNELGAVIASHTGPGTYGFYAYSL | soluble |
| MAHHHHHHMLRFTVPALVVFQNAYAPRVLNRMTPDRMELTMLILKERKKKVRYLGSNFQGFNDRVHLFNAQGGVRRGTRYIIETHHNRIQFKHRSRNNSMVDVRAVKMAGSQYDSIGNYTRMTWDNSLCTTNLLSDPNFKRHFKNMPKEETIGVLEEWGVRYILLDEIRKPSLMDCKYHKHHLYADKFWWSPSPETNHMRGDAEFKWKGNELIAYGDYNAHMQHPANFVTSSSSGSSGSGAATSKSAAAAAGSKKGASARPWFRRTVVVRKSQASDTKPLSTASKIAAAGTSK | soluble |
| MSDTANTAVEVDEQVIEKKLDDLSIGKKRSPSKDDTSKHRLPAAERIRIWEEEQKAKIVLTAGLQGKVKWYSVLRRYGFISRSDGEKDVFVHQTAISKSDTEKFYLRTLADEEEVLFDLVDGKNGPEAANVTGPAGVNVSGSKYRHQLLSRFRKNRKPKIVVGEDFDSKETEKLVEAPAVAMEKKKQRKQRKNKNRKQKDQKGAGDAADSSATTESLGTSSETASPDSKSCTKIISEEAGLSKIDRCDSALDDAGLGAQLIDAQI | soluble |
| MSLTDKMQSLALAPVGNLDSYIRAANAWPMLSADEERALAEKLHYHGDLEAAKTLILSHLRFVVHIARNYAGYGLPQADLIQEGNIGLMKAVRRFNPEVGVRLVSFAVHWIKAEIHEYVLRNWRIVKVATTKAQRKLFFNLRKTKQRLGWFNQDEVEMVARELGVTSKDVREMESRMAAQDMTFDLSSDDDSDSQPMAPVLYLQDKSSNFADGIEDDNWEEQAANRLTDAMHGLDERSQDIIRARWLDEDNKSTLQELADRYGVSAERVRQLEKNAMKKLRAAIEAEGHHHHHH | soluble |
| RVSNEFPPREYIATVYNRICNYLQIGEGEGFERSFDFDIDAFCRNFRMFPTQVLAAIRILDVAGIWEYREEKTRSRLTIQVQRDELYRMRSEQASDSVLTALMRTYDGLFADYVSIVESELAEKTGLSVDQVYQQLLLLNKAGIVNYIPQKNLPRIYFLTRREDAELLQIPRAAYEDRRDRLKARIDQSLRYIEEENTCRSRMLLAYFGEEQSHNCKLCDVCLRRKDGELHHHEVDDLLHFLEQRLTEETPYVLIADICRELHHHPDVVLKAIRFVMKESWQYSTDGDTVFLTHKLPGGLNL | not soluble |
| MATSVLCCLRCCRDGGTGHIPLKEMPAVQLDTQHMGIWGIGVATQKVNLNQIPLGRDMHSLVMRNDGALYHNNEEKNRLPANSLPQEGDVVGITYDHVELNVYLNGKNMHCPASGIRGTVYPVVYDDDSAILDCQFSEFYHTPPPGFEKILFEQQIF | not soluble |
| MSDSDLKEIEKNAENIKLEPAEDEVNEEDQNEITIPELPEGRVLELRLLSNWGDSHYIGLNSVEIFTSTGERAVIDKIATNVTEYTGSLESLIVQRVHCKDAEKMWCAKTTEEKIVLTLELKETCKLALIRFWNYNASRVHAQIGVRYLEMYLDGVGIFRGELECAFSADSEFTPVMGETVLFTTSDNILELIALHDVCLISLPEEPISNSSIEMLKADHLTPYRPSTCEAKDAPSTPVTIVPPPIFRQTGTAYKHDVKTLHIELLSNWGMDGLIGLTGLELVDEHSQLIDESQYTVTTSDGNSDLSKKLFNGRNLTRDPHDMWLVDFDSKNFTTISITFHDNVALKAISVWNYNASFELSYAGVKAAKIYINGKLIKNVLLRKATGFVYFDYVQDVVLDPNNTERDFVPKGISQSIGGFVFQIRLLSTWGDEFYIGLNGIELYNRKGELMKIREHNLAAFPESVNILPNIKNDLRTSNNLITQPNDTDIARNMWLTALLPNRCARVFFVFDVQTYISKIVIYNYRKTPERGVRHISVTVDDLIIFSGEIPSSTATLTGNLEINLMDI | not soluble |

Source: the DeepSol protein solubility set
